From PMC2927863 come the findings set out here.

Positions count from the first letter of the chain named.

For series [1], the target named is T1, GST-NHR-6 (DBD+LBD) (Caenorhabditis elegans, UniProt P41829 260-619).
T1 sequence: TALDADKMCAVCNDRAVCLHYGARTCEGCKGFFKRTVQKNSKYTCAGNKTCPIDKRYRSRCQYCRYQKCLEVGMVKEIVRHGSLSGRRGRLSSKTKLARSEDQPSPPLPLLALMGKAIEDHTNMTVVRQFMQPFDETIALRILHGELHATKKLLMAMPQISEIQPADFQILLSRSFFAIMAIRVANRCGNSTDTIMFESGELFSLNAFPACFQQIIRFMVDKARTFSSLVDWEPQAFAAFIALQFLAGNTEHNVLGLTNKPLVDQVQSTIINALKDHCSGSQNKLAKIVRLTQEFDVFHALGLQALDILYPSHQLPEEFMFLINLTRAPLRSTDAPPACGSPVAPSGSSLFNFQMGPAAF
Briefly: competition.

In series [2] the target is T1, GST-NHR-6 (DBD+LBD). Briefly: EMSA. For orientation: In EMSA bound probe runs differently from free probe, usually more slowly.
The next series deals with T2, GST-NHR-6 (C288S) (Caenorhabditis elegans, UniProt P41829 260-619, C288S).
T2 sequence: T1 sequence with C29S
Nature of the series: EMSA.

B1: mutant NBRE 26-mer (dsDNA)
DNA 1: GAGTTTTACCAGGTCATGCTCAATTT
DNA 2: AAATTGAGCATGACCTGGTAAAACTC
In the case of B1, the binding result with GST-NHR-6 (DBD+LBD) [1] is “no binding”.

B2: NBRE 26-mer (dsDNA)
DNA 1: GAGTTTTAAAAGGTCATGCTCAATTT
DNA 2: AAATTGAGCATGACCTTTTAAAACTC
Turning to B2, the values for the binding result with GST-NHR-6 (DBD+LBD) [2] and in the series with GST-NHR-6 (C288S) were “binds” and “no binding”, respectively.
